From patent publication US20210238260

Experiments:
[1] = biological target: Factor X (FX), P00742
[2] = biological target: Factor X, P00742
Chain of Factor X, P00742 (P00742 whole entry, looked up): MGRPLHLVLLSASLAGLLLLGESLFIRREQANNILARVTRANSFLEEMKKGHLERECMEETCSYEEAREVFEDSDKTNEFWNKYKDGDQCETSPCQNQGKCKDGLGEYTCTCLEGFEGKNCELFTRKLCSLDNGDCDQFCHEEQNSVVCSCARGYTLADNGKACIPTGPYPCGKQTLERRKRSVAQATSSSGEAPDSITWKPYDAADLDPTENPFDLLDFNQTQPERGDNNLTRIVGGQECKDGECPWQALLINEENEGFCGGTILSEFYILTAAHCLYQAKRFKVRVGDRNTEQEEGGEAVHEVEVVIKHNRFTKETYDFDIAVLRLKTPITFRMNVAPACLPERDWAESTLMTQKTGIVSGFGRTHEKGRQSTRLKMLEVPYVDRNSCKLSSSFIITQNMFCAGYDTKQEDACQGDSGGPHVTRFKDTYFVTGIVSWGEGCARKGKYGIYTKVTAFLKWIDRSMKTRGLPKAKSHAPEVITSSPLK

Chain of Factor X (FX), P00742 (P00742 whole entry, looked up): as above

Protein	KM [1] [µM]	% of WT kcat/KM [2] [%]	kcat [2] [s⁻¹]	kcat/KM [2] [M⁻¹ s⁻¹]
FIXa-Y155F/R338E/T343R/R403E (protein) chain 1: YNSGKLEEFVQGNLERECMEEKCSFEEAREVFENTERTTEFWKQYVDGDQCESNPCLNGGSCKDDINSYECWCPFGFEGKNCELDVTCNIKNGRCEQFCKNSADNKVVCSCTEGYRLAENQKSCEPAVPFPCGRVSVSQTSKLTR chain 2: VVGGEDAKPGQFPWQVVLNGKVDAFCGGSIVNEKWIVTAAHCVETGVKITVVAGEHNIEETEHTEQKRNVIRIIPHHNYNAAINKYNHDIALLELDEPLVLNSYVTPICIADKEYTNIFLKFGSGYVSGWGRVFHKGRSALVLQYLRVPLVDRATCLESTKFRIYNNMFCAGFHEGGRDSCQGDSGGPHVTEVEGTSFLTGIISWGEECAMKGKYGIYTKVSEYVNWIKEKTKLT	0.0289	429	5.2	2e+08
FIXa-D104N/K106S/Y155F/R318Y/R338E/R403E/E410N (mature FIX numbering) (protein) chain 1: YNSGKLEEFVQGNLERECMEEKCSFEEAREVFENTERTTEFWKQYVDGDQCESNPCLNGGSCKDDINSYECWCPFGFEGKNCELDVTCNIKNGRCEQFCKNSANNSVVCSCTEGYRLAENQKSCEPAVPFPCGRVSVSQTSKLTR chain 2: VVGGEDAKPGQFPWQVVLNGKVDAFCGGSIVNEKWIVTAAHCVETGVKITVVAGEHNIEETEHTEQKRNVIRIIPHHNYNAAINKYNHDIALLELDEPLVLNSYVTPICIADKEYTNIFLKFGSGYVSGWGRVFHKGYSALVLQYLRVPLVDRATCLESTKFTIYNNMFCAGFHEGGRDSCQGDSGGPHVTEVEGTSFLTGIISWGEECAMKGKYGIYTKVSEYVNWIKNKTKLT		394		1.8e+08
FIXa-Y155F/N260S/R338E/T343R/R403E (protein) chain 1: YNSGKLEEFVQGNLERECMEEKCSFEEAREVFENTERTTEFWKQYVDGDQCESNPCLNGGSCKDDINSYECWCPFGFEGKNCELDVTCNIKNGRCEQFCKNSADNKVVCSCTEGYRLAENQKSCEPAVPFPCGRVSVSQTSKLTR chain 2: VVGGEDAKPGQFPWQVVLNGKVDAFCGGSIVNEKWIVTAAHCVETGVKITVVAGEHNIEETEHTEQKRNVIRIIPHHNYSAAINKYNHDIALLELDEPLVLNSYVTPICIADKEYTNIFLKFGSGYVSGWGRVFHKGRSALVLQYLRVPLVDRATCLESTKFRIYNNMFCAGFHEGGRDSCQGDSGGPHVTEVEGTSFLTGIISWGEECAMKGKYGIYTKVSEYVNWIKEKTKLT	0.0692	203	6.4	9.4e+07
FIXa-A103N/N105S/Y155F/R318Y/R338E/R403E/E410N (mature FIX numbering) (protein) chain 1: YNSGKLEEFVQGNLERECMEEKCSFEEAREVFENTERTTEFWKQYVDGDQCESNPCLNGGSCKDDINSYECWCPFGFEGKNCELDVTCNIKNGRCEQFCKNSNDSKVVCSCTEGYRLAENQKSCEPAVPFPCGRVSVSQTSKLTR chain 2: VVGGEDAKPGQFPWQVVLNGKVDAFCGGSIVNEKWIVTAAHCVETGVKITVVAGEHNIEETEHTEQKRNVIRIIPHHNYNAAINKYNHDIALLELDEPLVLNSYVTPICIADKEYTNIFLKFGSGYVSGWGRVFHKGYSALVLQYLRVPLVDRATCLESTKFTIYNNMFCAGFHEGGRDSCQGDSGGPHVTEVEGTSFLTGIISWGEECAMKGKYGIYTKVSEYVNWIKNKTKLT		283		1.3e+08
FIXa-D104N/K106S/R318Y/R338E/R403E/E410N (mature FIX numbering) (protein) chain 1: YNSGKLEEFVQGNLERECMEEKCSFEEAREVFENTERTTEFWKQYVDGDQCESNPCLNGGSCKDDINSYECWCPFGFEGKNCELDVTCNIKNGRCEQFCKNSANNSVVCSCTEGYRLAENQKSCEPAVPFPCGRVSVSQTSKLTR chain 2: VVGGEDAKPGQFPWQVVLNGKVDAFCGGSIVNEKWIVTAAHCVETGVKITVVAGEHNIEETEHTEQKRNVIRIIPHHNYNAAINKYNHDIALLELDEPLVLNSYVTPICIADKEYTNIFLKFGSGYVSGWGRVFHKGYSALVLQYLRVPLVDRATCLESTKFTIYNNMFCAGFHEGGRDSCQGDSGGPHVTEVEGTSFLTGIISWGEECAMKGKYGIYTKVSEYVNWIKNKTKLT		377		1.7e+08
FIXa-Y155F/R318Y/R338E/R403E/E410N (mature FIX numbering) (protein) chain 1: YNSGKLEEFVQGNLERECMEEKCSFEEAREVFENTERTTEFWKQYVDGDQCESNPCLNGGSCKDDINSYECWCPFGFEGKNCELDVTCNIKNGRCEQFCKNSADNKVVCSCTEGYRLAENQKSCEPAVPFPCGRVSVSQTSKLTR chain 2: VVGGEDAKPGQFPWQVVLNGKVDAFCGGSIVNEKWIVTAAHCVETGVKITVVAGEHNIEETEHTEQKRNVIRIIPHHNYNAAINKYNHDIALLELDEPLVLNSYVTPICIADKEYTNIFLKFGSGYVSGWGRVFHKGYSALVLQYLRVPLVDRATCLESTKFTIYNNMFCAGFHEGGRDSCQGDSGGPHVTEVEGTSFLTGIISWGEECAMKGKYGIYTKVSEYVNWIKNKTKLT		418		1.9e+08
FIXa-R338E/T343R/R403E (protein) chain 1: YNSGKLEEFVQGNLERECMEEKCSFEEAREVFENTERTTEFWKQYVDGDQCESNPCLNGGSCKDDINSYECWCPFGFEGKNCELDVTCNIKNGRCEQFCKNSADNKVVCSCTEGYRLAENQKSCEPAVPFPCGRVSVSQTSKLTR chain 2: VVGGEDAKPGQFPWQVVLNGKVDAFCGGSIVNEKWIVTAAHCVETGVKITVVAGEHNIEETEHTEQKRNVIRIIPHHNYNAAINKYNHDIALLELDEPLVLNSYVTPICIADKEYTNIFLKFGSGYVSGWGRVFHKGRSALVLQYLRVPLVDRATCLESTKFRIYNNMFCAGFHEGGRDSCQGDSGGPHVTEVEGTSFLTGIISWGEECAMKGKYGIYTKVSEYVNWIKEKTKLT	0.0235	663	6.9	3.1e+08
FIXa-D203N/F205T/R318Y/E410N (mature FIX numbering) (protein) chain 1: YNSGKLEEFVQGNLERECMEEKCSFEEAREVFENTERTTEFWKQYVDGDQCESNPCLNGGSCKDDINSYECWCPFGFEGKNCELDVTCNIKNGRCEQFCKNSADNKVVCSCTEGYRLAENQKSCEPAVPFPCGRVSVSQTSKLTR chain 2: VVGGEDAKPGQFPWQVVLNGKVNATCGGSIVNEKWIVTAAHCVETGVKITVVAGEHNIEETEHTEQKRNVIRIIPHHNYNAAINKYNHDIALLELDEPLVLNSYVTPICIADKEYTNIFLKFGSGYVSGWGRVFHKGYSALVLQYLRVPLVDRATCLRSTKFTIYNNMFCAGFHEGGRDSCQGDSGGPHVTEVEGTSFLTGIISWGEECAMKGKYGIYTKVSRYVNWIKNKTKLT		88		3.9e+07
FIXa-Y155F/R338E/T343R/R403E/E410S (protein) chain 1: YNSGKLEEFVQGNLERECMEEKCSFEEAREVFENTERTTEFWKQYVDGDQCESNPCLNGGSCKDDINSYECWCPFGFEGKNCELDVTCNIKNGRCEQFCKNSADNKVVCSCTEGYRLAENQKSCEPAVPFPCGRVSVSQTSKLTR chain 2: VVGGEDAKPGQFPWQVVLNGKVDAFCGGSIVNEKWIVTAAHCVETGVKITVVAGEHNIEETEHTEQKRNVIRIIPHHNYNAAINKYNHDIALLELDEPLVLNSYVTPICIADKEYTNIFLKFGSGYVSGWGRVFHKGRSALVLQYLRVPLVDRATCLESTKFRIYNNMFCAGFHEGGRDSCQGDSGGPHVTEVEGTSFLTGIISWGEECAMKGKYGIYTKVSEYVNWIKSKTKLT	0.0239	629	6.8	2.9e+08
